B1: TPR t1 (parent)
chain: GACCAAUCUGCCCUCAGAGCUCGAGAACAUCUUCGGAUGCAGAGGAGGCAGGCUUCGGUGGCGCGAUAGCGCCAACGUCCUCAACCUCCAAUGCAUCCCACCACAUGAUGAUGCCUGAAGAGCCUUGGUUUUUUG

Variants of: B1
Assay: polymerase ribozyme fitness, log enrichment relative to wild type (log ratio); higher = more active; in vitro selection for triplet polymerase activity
How it was run: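 The heterodimeric triplet polymerase ribozyme's subunits were each mutagenized into PCR-built libraries and transcribed. Every library was selected once, in triplicate, by annealing with a biotinylated primer, the partner subunit and triplets, incubating frozen at −7 °C, gel-excising extended constructs, capturing on streptavidin beads and running RT-PCR. Input and output libraries were Illumina-sequenced, with genotypes kept only at ≥10 input reads and ≥1 read per output. Fitness, from inverse-variance-weighted replicate averages, is the base-2 logarithm of genotype enrichment over wild-type enrichment.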

| Variant | polymerase ribozyme fitness (log ratio) |
| --- | --- |
| A26U G39A G120C C124A G135A | -3.54 |
| A75U C99U G120U | -4.3 |
| U55G G71A | -1.19 |
| U9A C15A C56G C70U C76U G120C G122U U129C | -6.98 |
| C8G U30A | -5.66 |
| C62U C99U | -3.59 |
| C40G A84U | -1.56 |
| G52U G120U | -0.714 |
| C8U G63C | 0.00815 |
| G47C C73U | -1.61 |
| A18U U21G C79G G93C G107C A108U C123G C124U | -7.63 |
| C115G C124U | -1.13 |
| C73A C85A G117A A119G U133C G135C | -0.124 |
| A29G G63C | -1.45 |
| A2U C4U G39C G44U G61A A83G C89U A121U | -2.89 |
| C72G U109G U125G | -4.97 |
| C73A C94A C102A | -2.96 |
| C12G C40G C62U | -0.941 |
| C8U C72U U78C U81A A83G | -0.492 |
| G93C C94A | -1.68 |
| C53G G63C G93C | -0.994 |

| Variant | polymerase ribozyme fitness (log ratio) |
| --- | --- |
| C8G U14G C53U G71U | 0.478 |
| C56A G77U | -0.278 |
| A111G U133G | -0.431 |
| A6C U9C C13U G17A G58A A121G | 0.229 |
| G110U A111G G113C | -2.46 |
| C13U A50U G77C A121G C123U C124U G128U U131C | 0.387 |
| C53A C72U | -0.465 |
| A37C C114G G120A C123U | -5.25 |
| G58U C86U G110U G122A | -3.85 |
| C56G A74G | -1.5 |
| G10C C73G C80U | -3.34 |
| A5U G19A G52A G57A A95G | -4.08 |
| C12A A29C A84C | -3.21 |
| C49A U78A U129G | -1.45 |
| G48U G52U A90G A91U C114U | -2.83 |
| C13A C49G | -1.06 |
| C85G C94U | -2.67 |
| G47U C85U C97A C124G | -4.97 |
| C22G G60C C104A A121U | -2.34 |
| C12G U96C | 0.043 |
| U78A C114U | -1.83 |

| Variant | polymerase ribozyme fitness (log ratio) |
| --- | --- |
| A27U C82U | -2.99 |
| G71U G77C C89U G128C | -4.14 |
| G63A G93C G113U | -5.1 |
| C12U G61U C62U G113A | -4.94 |
| G45A U67A C102A G120A | -6.86 |
| C72U G117A | -1.29 |
| C85A C88U U96G G113U | -5.67 |
| C28A A43G G51U A90G G110A | -4.93 |
| C72A C104G | -7.39 |
| A16G C72G U129G | -2.89 |
| A6U C49A C62U C70G C104A U125A | -7.09 |
| C31A U96G A121G | -4.67 |
| G69A G71U | -4.27 |
| U32A G45A A75U C88U U96C | -5.82 |
| U7A A50U | -0.856 |
| G10A C49G G63U | -0.848 |
| C11U G117C | -2.78 |
| C49A C89A | -1.76 |
| A46U A74U U87G G93A C98U | -2.38 |
| A37U G48A | -0.338 |
| C56U C88A | -0.497 |

| Variant | polymerase ribozyme fitness (log ratio) |
| --- | --- |
| A26U U78A G110U G120C U133G | -7.89 |
| A27U C53A G71U C88A G117C | -6.86 |
| C8G C11G U54C U55G C56U | -1.33 |
| U7A G17U A111C G135U | -3.91 |
| A2C A37U G48A U54A C73A C79G A119U G128U | -5.61 |
| C64U G77A C80A U92C | -5.1 |
| G77U G113A G135A | -1.34 |
| G39U A91U U126G G128U | -3.6 |
| C12A A37C C40U G47A C73A | -4.88 |
| U33A G48C G113C | -5.71 |
| G61A C70U | -0.854 |
| C8A A27C C28U | -4.62 |
| G69U G128C | -1.01 |
| C15U A37G C70U A100U A121C C123U | -1.4 |
| C4U A43U C70U | -3.47 |
| G61A C79U | -0.164 |
| C40U A74G C88U G120A A121C | -0.0609 |
| C22G C56U C88U A91C | -4.75 |
| A84G C88U C124U | 0.679 |
| A26G C82U C124A G127C U133C G135U | -4.09 |
| G47U C72A | -0.885 |
